{
  "source": "patent US20080248467",
  "about": "“System for pulling out regulatory elements using yeast” (published 2008)",
  "binders": {"B1": {"name": "2x Pax3 oligo (dsDNA)", "DNA 1": "CAGTGACGATTAGCACCGTCACGCTTAGATATAGTGACGATTAGCACCGTCACGCTTAGATATA", "DNA 2": "CGCGTATATCTAAGCGTGACGGTGCTAATCGTCACTATATCTAAGAGTGACGGTGCTAATCGTCACTGAGCT"}},
  "biological_target": "Pax3 (GST fusion or 6xHis) (UniProt P24610 P24610:1-479)",
  "sequence (P24610 whole entry, the tested form may be a part, one chain of several)": "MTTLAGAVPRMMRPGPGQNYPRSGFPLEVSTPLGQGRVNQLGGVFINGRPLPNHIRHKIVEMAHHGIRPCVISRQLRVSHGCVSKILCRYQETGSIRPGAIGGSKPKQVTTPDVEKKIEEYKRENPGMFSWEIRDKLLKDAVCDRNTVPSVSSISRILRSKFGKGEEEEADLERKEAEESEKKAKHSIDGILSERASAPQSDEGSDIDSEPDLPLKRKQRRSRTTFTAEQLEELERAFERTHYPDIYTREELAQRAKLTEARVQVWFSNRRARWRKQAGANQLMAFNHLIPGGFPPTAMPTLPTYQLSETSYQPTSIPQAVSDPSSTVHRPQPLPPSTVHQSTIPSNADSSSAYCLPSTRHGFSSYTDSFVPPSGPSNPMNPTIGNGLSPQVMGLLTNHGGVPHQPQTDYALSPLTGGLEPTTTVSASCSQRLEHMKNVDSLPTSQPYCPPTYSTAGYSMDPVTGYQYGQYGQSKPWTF",
  "assay": "EMSA; 25 C",
  "conditions": "tags: GST-Pax3 or 6xHis-Pax3, bacterially expressed; label: 32P; overhangs",
  "method": "Probes were generated by end-labeling double-stranded oligonucleotides with γ³² P-dATP or PCR labeling with α³²P-dGTP. Probes were incubated with or without 6×-His-Pax3 or GST-PAX3 at 25° C., and the complexes were resolved on a 6% Tris-glycine polyacrylamide gel. The free probes are designated by the bottom bracket, and the shifted Pax3:DNA complex by the asterisk to the right of each gel.\nProbes were generated by end labeling double-stranded oligonucleotides with γ³²P-dATP or PCR labeling with α³²P-dGTP. Probes were incubated with or without 6×-His-Pax3 or GST-PAX3 at 25° C., and the complexes were resolved on a 6% Tris-glycine polyacrylamide gel. The location of the free probes is indicated by the bracket at left, and the shifted Pax3:DNA complexes by the asterisks to the right of each gel.",
  "data": [
    {"binder": "B1", "values": [
      {"measurement": "binding result", "result": "binds"}
    ]}
  ]
}
